# Laboratory results reported in patent US20120283182A1.
# Ends that are not written are not given here.
# Tests used:
# [1] = molecular target: 'd' subunit of F1Fo ATP synthase (dF1Fo) (rat) (UniProt P31399); experiment: cell-based or functional assay
# [2] = molecular target: 'd' subunit of F1Fo ATP synthase (dF1Fo) (rat) (UniProt P31399); experiment: co-IP with anti-dF1Fo antisera from NCM mitochondria; Western blot densitometry
# [3] = test system: adult rat cardiac ventricular F1Fo ATPase holo-enzyme
# [4] = molecular target: delta protein kinase C (δPKC) (rat) (UniProt P09215); experiment: PKC overlay assay: facilitation of δPKC binding to blotted dF1Fo by the peptide; densitometry
# [5] = molecular target: delta protein kinase C (δPKC) (rat) (UniProt P09215); experiment: PKC overlay assay: inhibition of δPKC binding to blotted dF1Fo by the peptide; densitometry
# Chain of 'd' subunit of F1Fo ATP synthase (dF1Fo) (rat) (P31399 2-161 limits assumed): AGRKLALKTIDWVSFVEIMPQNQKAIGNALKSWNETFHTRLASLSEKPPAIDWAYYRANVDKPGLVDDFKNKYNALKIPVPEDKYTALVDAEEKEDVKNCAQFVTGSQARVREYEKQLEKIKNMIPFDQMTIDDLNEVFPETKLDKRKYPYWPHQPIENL
molecule,measurement,setting,value
delta protein kinase C (δPKC) (from UniProt P09215 1-673) (enzyme),further inhibition of F1Fo ATPase activity in NCM mitochondria (high glucose plus hypoxia),[1],28%
same,further inhibition of F1Fo ATPase activity in NCMs (high glucose plus hypoxia),[1],29%
same,inhibition of F1Fo ATPase activity in NCM mitochondria (high glucose),[1],56.1%
same,inhibition of F1Fo ATPase activity in NCM mitochondria (hypoxia),[1],10 fold
same,inhibition of F1Fo ATPase activity in NCMs (high glucose),[1],54%
same,inhibition of F1Fo ATPase activity in rat heart mitochondria (ischemia/reperfusion),[1],2.2 fold
same,inhibition of baseline F1Fo ATPase activity in NCMs (4 hr hypoxia),[1],75.1%
same,fold increase of δPKC-dF1Fo co-IP over 3 nM 4-β PMA-induced levels,[2],3.4 fold
recombinant δPKC purified from sf9 cells,"oligomycin-sensitive F1Fo ATPase activity, in vitro",[3],recombinant δPKC profoundly inhibited F1Fo ATPase activity in the presence or absence of the PKC activators DG and PS
RVREYEKQLEKIKNMI [δPKC-dF1Fo facilitator peptide …],EC50,[4],300 µM
AGRKLALKTIDWVSF (not fully specified) [δPKC-dF1Fo inhibitor peptide …],IC50,[5],300 µM
